# Measured values published in PMC4383067 (Acta Neuropathologica Communications, 2015).
# Target: Amyloid fibrils of full-length human PrP (human, UniProt P04156 23-230)
# Assay: static light scattering kinetics
# Conditions: both partners purified
binder,measurement,value
"Full-length human acetylcholinesterase (dimeric, recombinant) (enzyme, also called AChE; dimeric AChE) EGREDAELLVTVRGGRLRGIRLKTPGGPVSAFLGIPFAEPPMGPRRFLPPEPKQPWSGVVDATTFQSVCYQYVDTLYPGFEGTEMWNPNRELSEDCLYLNVWTPYPRPTSPTPVLVWIYGGGFYSGASSLDVYDGRFLVQAERTVLVSMNYRVGAFGFLALPGSREAPGNVGLLDQRLALQWVQENVAAFGGDPTSVTLFGESAGAASVGMHLLSPPSRGLFHRAVLQSGAPNGPWATVGMGEARRRATQLAHLVGCPPGGTGGNDTELVACLRTRPAQVLVNHEWHVLPQESVFRFSFVPVVDGDFLSDTPEALINAGDFHGLQVLVGVVKDEGSYFLVYGAPGFSKDNESLISRAEFLAGVRVGVPQVSDLAAEAVVLHYTDWLHPEDPARLREALSDVVGDHNVVCPVAQLAGRLAAQGARVYAYVFEHRASTLSWPLWMGVPHGYEIEFIFGIPLDPSRNYTAEEKIFAQRLMRYWANFARTGDPNEPRDPKAPQWPPYTAGAQQYVSLDLRPLEVRRGLRAQACAFWNRFLPKLLSATDTLDEAERQWKAEFHRWSSYMVHWKNQFDHYSKQDRCSDL",stoichiometry N,1
